According to the DeepSol protein solubility set:

Experiment: soluble on expression in E. coli; label from the status in PepcDB or PDB records

| Sequence | soluble on expression in E. coli |
| --- | --- |
| MKIKTILTPVTCALLISFSAHATNADNYKNVINRTGAPQYMKDYDYDDHQRFNPFFDLGAWHGHLLPDGPNTMGGFPGVALLTEEYINFMASNFDRLTVWQDGKKVNFTLEAYNIPGALVQKLTAKDVQVEMTLRFATPRTSLLETKIISNKPLDLVWDGELLEKLEAKEGKPLSDKTIAGEYPDYQRKISATRDGLKVTFGKVRATWDLLTSGESEYQVHKSLPVQTEINGNRFTSKAHINGSTTLYTTYSHLLTSQEVSKEQMQIRDILARPAFYLTASQQRWEEYLKKGLTNPDATPEQTRVAVKAIETLNGNWRSPGGAVKYNTVTPSVTGRWFSGNQTWPWDTWKQAFAMAHFNPDIAKENIRAVFSWQIQPGDSVRPQDVGFVPDLIAWNLSPERGGDGGNWNERNTKPSLAAWSVMEVYNVTQDKTWVAEMYPKLVAYHDWWLRNRDHNGNGVPEYGATRDKAHNTESGEMLFTVKKGNKEETQSGLNNYARVVEKGQYDSLEIPAQVAASWESGRDDAAVFGFIDKEQLDKYVASGGKRSDWTVKFAENRSQDGTLLGYSLLQESVDQASYMYSDNHYLAEMATILGKPEEAKRYRQLAQQLADYINTCMFDPATQYFYDVRIEDKPLANGCAGKPIVERGKGPEGWSPLFNGAATQANADAVVKVMLDPKEFNTFVPLGTAALTNPAFGADIYWRGRVWVDQFWFGLKGMERYGYRDDALKLADTFFRHAKGLTADGPIQENYNPLTGAQQGAPNFSWSAAHFYMLYNDFFRKQ | not soluble |
| MGSDKIHHHHHHMSDIELLETLAGTDQPRVMATIIHVEGSSYRKEGAMMLFQEDGTQVGLLSGGCLETDLTIKAQKVWQEQLPRTVVYDLSSEDDLSWGQGSGCNGTISVLLEPVDLKLRQHLKRVYDYLCAGKSVFHVKKLSTSGAVLEYAFILDESVYFGEWHSGHPVEWIRKIDENEEPLMFTHIYSPKERLIIFGAGPDVPPLVTFASNVGFYTVVTDWRPNQCEKHFFPDADEIIVDFPADFLRKFLIRPDDFVLIMTHHFQKDQEILHFLLEKELRYIGILGSKERTRRLLQNRKPPDHLYSPVGLSIDAQGPEEIAISIVAQLIQLIRSRKQASSPFSYLFQPESCKH | not soluble |
| MEENSADIENRPVAAFRPAVSVPMPVLPQDGEVFVGPGGKKDAQKIGLGLSKLSSKRKDDIQMAKKYAMDISIKQILLRQQKQQQENQQRQQMYSQALSIMSRIYVGSISFEIREDMLRRAFDPFGPIKSINMSWDPATGHHKTFAFVEYEVPEAALLAQESMNGQMLGGRNLKVNSMMFQEMRLPQNMPQAQPIIDMVQKDAKKYFRVYVSSVHPDLSETDLKSVFEAFGEIVKCQLARAPTGRGHRGFGYLEFNNLTSQSEAIAGMNMFDLGGQYLRVGKCVTPPDALTYLQPASVSAIPASVSVACAAITAKVMAAEAAAGSSPKTPSESGGSRAASPAPRAQSPATPSSSLPTDIENKAVISSPKKEPEEIEVPPLPPSAPDVVKDEPMEIEEEEEYTIPEEKPKPVAIVPPPGLAIPSLVAPPGLIAPTEIGIVVPNPSFLAQQQQKIEEKIEEEEEARTERVKLSTSQRKKMKREKLNQMTFEEKMAQVLGQQKAVQNQRMADPVTFGALDDTVAWKDPSNEDQTSEDGKMLAIMGPGRGGDNVASMALALMDGGSSLMLANNAKAKEAAAALALEPKKKKKVKEGKKIQPKLNTAQALAAAAKAGEMSDALKNEVMNSEDASLASQEGLEIRGNDARHLLMTKLMRTNRSNVIVLRNMVTPQDIDEFLEGEIREECGKYGNVIDVVIANFASSGLVKIFVKYSDSMQVDRAKAALDGRFFGGNTVKAEAYDQILFDHADYTG | not soluble |
| MSYNFELSYVKGCDSVHVVEHKTSAVYYPRSNGAAERFVDTLKRGIAKIKGEGSVNQQILNKFLISYRNTPHSALNGATPAECHFGRKIRTTMSLLMLTDRVLKVPKLTQYQQNMKHHYDLRNGARAKNFQVNQKVYVQVHQGNKSHWKHGVIRRKFGGVLYEVQVGDRMQKSHVNQIRTRCGDYSREDIFEETIYPLFFSTPGKFTSCSDNKSRSGATGGETNLFDSSGSSVNPRLSSDSFGFVGESGGDEMSRSDDPVVTSTVPSTDLNRGSRITSELKKKESNAVRGQPRGSSSTNNNDSSAPGYASRSHPTTDPSHSVRRSSRIRRVPDRYGSSVEHPLTSTGTPRGSTSTQLGQASTRNGSRYTASGRTPSCQGNRYSSIRGEGVTARRERVRSTWR | not soluble |
| MTSNQLAQYIDHTALTAEKNEQDISTLCNEAIEHGFYSVCINSAYIPLAKEKLAGSNVKICTVVGFPLGANLTSVKAFETQESIKAGANEIDMVINVGWIKSQKWDEVKQDIQAVFNACNGTPLKVILETCLLTKDEIVKACEICKEIGVAFVKTSTGFNKGGATVEDVALMKNTVGNIGVKASGGVRDTETALAMIKAGATRIGASAGIAIISGTQDTQSTYLEHHHHHH | soluble |
